In assay [1] the target is T1, HLA-A2 molecules on the surface of human T2 cells (human).
T1 construct: MHC class I molecule that the peptides load onto; also called HLA-A2.1; HLA-A*0201
Put plainly: T2 peptide-binding assay; HLA-A2 up-regulation on T2 cells, 50 ug/mL peptide plus b2m, flow cytometry with PE anti-HLA-A2 mAb. In general terms: A flow cytometer gives signals particle by particle.

In assay [2] the target is T1, HLA-A2 molecules on the surface of …. The experiment in a line: T2 peptide-binding assay; HLA-A2 up-regulation on T2 cells, 50 ug/ml peptide plus b2m, flow cytometry with FITC anti-HLA-A2 mAb.
Assay [3] has the same target. The experiment in a line: T2 peptide-binding assay; HLA-A2 up-regulation on T2 cells, flow cytometry.
The target is the same in assay [4]. The experiment in a line: peptide stability assay on T2 cells after Brefeldin A, flow cytometry with FITC anti-HLA-A2 mAb.

We go through twelve molecules from patent US20110159021A1 (Dana-Farber, published 2011).

With TLIYILWQL (Native peptide of CS1, synthetic) [CS1-P4: CS1 9-17 (TLIYILWQL)], the binding result in assay [1] was “binds”.

B1: SP XBP1 196-204 (GILDNLDPV) (peptide)
peptide: GILDNLDPV
notes: also called SP XBP1 #1 peptide; SP XBP1 #1p
With B1, the “MFI (HLA-A2 mean fluorescence intensity)” value in assay [2] turned out to be 762 MFI.

B2: XBP1 110-118 (KLLLENQLL) (peptide)
peptide: KLLLENQLL
notes: Native peptide of non-spliced XBP1, synthetic; also called XBP1 #5 peptide
As to B2, in assay [3], the binding result is “binds”.

B3: XBP1 189-197 (ILAVLTLQI) (peptide)
peptide: ILAVLTLQI
notes: Native peptide of non-spliced XBP1, synthetic; also called XBP1 #3 peptide
For the molecule B3, the binding result in assay [3] was “binds”.

B4: XBP1 184-192 (NISPWILAV) (peptide)
peptide: NISPWILAV
notes: Native peptide of non-spliced XBP1, synthetic; also called XBP1 #2 peptide; XBP1 #2p
B4: in assay [2], the “MFI (HLA-A2 mean fluorescence intensity)” value is 720 MFI.
For the molecule LLLSLFVLGL [CS1-P1: CS1 236-245 (LLLSLFVLGL)], the binding result in assay [1] is reported as “binds”.
As for SLFVLGLFL (Native peptide of CS1, synthetic) [CS1-P2: CS1 239-247 (SLFVLGLFL)], the binding result in assay [1] is on record as “binds”.
Take LLVPLLLSL (Native peptide of CS1, synthetic) [CS1-P3: CS1 232-240 (LLVPLLLSL)]: in assay [1], the binding result is on record as “binds”.
With LLREKTHGL (also called XBP1 #1 peptide) [XBP1 117-125 (LLREKTHGL)], in assay [3], the binding result was “binds”.

B5: SP XBP1 367-375 (ELFPQLISV) (peptide)
peptide: ELFPQLISV
notes: Native peptide of spliced XBP1, synthetic; also called SP XBP1 #3 peptide; SP XBP1 #3p
For the molecule B5, the “MFI (HLA-A2 mean fluorescence intensity)” value in assay [2] stood at 785 MFI.

B6: heteroclitic spliced XBP1 367-375 (YLFPQLISV) (peptide)
peptide: YLFPQLISV
notes: Heteroclitic variant of the spliced XBP1 367-375 peptide, synthetic; also called SP XBP1 #3M; XBP1 SP 3M
Consider B6, for which, in assay [4], the binding result is “binds”.

B7: CD138 260-268 (GLVGLIFAV) (peptide)
peptide: GLVGLIFAV
notes: Native peptide of CD138, synthetic; also called CD138 #2p; CD138 #2 peptide
As to B7, in assay [2], the “MFI (HLA-A2 mean fluorescence intensity)” value came to 690 MFI.
